Test results taken from US20240043504A1.

Molecular target: SARS-CoV-2 spike protein variant Y483A (Table 27), on VSV pseudoparticles (SARS-CoV-2) (UniProt P0DTC2)
Test: cell-based or functional assay

Question: For mAb10987 (antibody), which Relative neutralization (5 µg/ml, Vero cells) is on record?
Answer: 99%
